Assay results as given in the nanobody polyreactivity screen of Harvey et al. (2022).

Assay: yeast display, Sf9 membrane polyspecificity reagent, FACS + sequencing; frameworks hold sequencing errors
Procedure, shortened: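 Galactose induction of a Saccharomyces cerevisiae BJ5465 synthetic nanobody display library ran 36–48 hours. The cells were then stained for 1 hour at 4 °C with 10% biotinylated, detergent-solubilized Sf9 membrane reagent, pulled down on streptavidin microbeads and FACS-sorted into low and high (top ~1%) gates on expression and reagent-binding fluorescence. Labels for polyreactivity follow the gate of origin.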

Sequence | polyreactivity (PSR sort gate)
QVQLVESGGGLVQAGGSLRLSCAASGRTFRVNAMGWYRQAPGKERELVASITYSGGSTYYADSVKGRFTISRDNAKNTVYLQMNSLKQEDTAVYYCAADWYRSPYDYWGQGTQVTVSS | low polyreactivity
QVQLVESGGGLVQAGGSLRLSCAASGRTFRVNTMGWYRQAPGQEWELVAAITSSDRTYYADSVKGRFTISRDNAKNTVYLQMNSLKPDDTAVYYCAAYSEYYGVYYWGQGTQVTVSS | low polyreactivity
QVQLVESGGGLVQAGGSLRLSCAASGRTFRVYAMGWYRQAPGKERELVAAIRSGGNTNYADSVKGRFTISRDNAKNTVYLQMNSLKPEDTAVYYCAATTYVVASRYVGTLGDDYWGQGTQVTVSS | high polyreactivity
QVQLVESGGGLVQAGGSLRLSCAASGRTFRVYAMGWYRQAPGKERELVATITSSGGSTYYADSVKGRFTISRDNAKNTVYLQMNSLKPEDTAVYYCNVSVYYNYDSSYYYWGQGTQVTVSS | low polyreactivity
QVQLVESGGGLVQAGGSLRLSCAASGRTFRVYTMGWYRQAPGKERELVAVISGRGGSTSYADSVKGRFTISRDNAKNTVDLQMNSLKPEDTAVYYCAARGRAHWHYDYWGQGTQVTVSS | high polyreactivity
QVQLVESGGGLVQAGGSLRLSCAASGRTFRYKAMGWYRQAPGKERELVAAITYSGGITYYADSVKGRFTISRDNAKNTVYLQMNSLKPEDTAVYYCAADDPYRTTYEYDYWGQGTQVTVSS | low polyreactivity
QVQLVESGGGLVQAGGSLRLSCAASGRTFRYNAKGSYIQAPGKERELVAAINWNGGSTYYADSVKGSFTISRDNAKNTVYLQMNSLKQEDTAVYYCNADFYHRYDWGQGTQVSVSS | high polyreactivity
QVQLVESGGGLVQAGGSLRLSCAASGRTFRYNAMGWYRQAPGKERELVAAISRGANTNYADSVKGRFTISRDNAKNTVYLQMNSLKPADTAVYYCAAVPGYRFYYWGQGTQVTVSS | high polyreactivity
QVQLVESGGGLVQAGGSLRLSCAASGRTFRYNAMGWYRQAPGKERELVAAISRGANTNYADSVKGRFTISRDNAKNTVYLQMNSLKPEDTAVYYCAAVPGYRFYYWGQGTQVTVSS | high polyreactivity
QVQLVESGGGLVQAGGSLRLSCAASGRTFRYNAMGWYRQAPGKERELVASIRRGGSTNYADSVKGRFTISRDNAKNTVYLQMNRLKPEDTAVYYCAAGGYYWGQGTQVTVSS | high polyreactivity
QVQLVESGGGLVQAGGSLRLSCAASGRTFRYNAMVWFRQAPGKERELVAAISSGDRTNYADSVKGRFTISRDNAKNTVYLQMNSLKPEDTAVYYCAAPTDSYYEFDYWGQGTQVTVSS | low polyreactivity
QVQLVESGGGLVQAGGSLRLSCAASGRTFRYNGMGWYRQAPGKERELVAAITLRDGRTYYADSVKGRITISRDNPKNTVNIQMNSLIPEHTAVYYCALEYWVVNAQGNDYWGQGTQVSVSS | high polyreactivity
QVQLVESGGGLVQAGGSLRLSCAASGRTFRYNTMGWYRQAPGKERELVAAITKGAASTYYADSVKGRFTISRDNAKNTVYLQMNSLKPEDTAVYYCNAVYSRIVTQKYWGQGTQVTVSS | high polyreactivity
QVQLVESGGGLVQAGGSLRLSCAASGRTFRYYAMGLYRQAPGKERELVAAIRSGGTTYYADSVKGRFTISRDNAKNTVYLQMNSLKPEDTAVYYCAADGGKGGIRFGYWGQGTQVTVSS | high polyreactivity
QVQLVESGGGLVQAGGSLRLSCAASGRTFRYYAMGWYRQAPGKEREFVAAITSRSSRTYYADSVKGRFTISRDNAKNTVYLQMNSLKPEDTAVYYCNADYRRYPEFDYWGQGTQVTVSS | high polyreactivity
QVQLVESGGGLVQAGGSLRLSCAASGRTFRYYAMGWYRQAPGKERELVAAISASGGSTFYADSVKGRFTISRDNAKNTVYLLMNSLKPEDTAVYYCAAYHYSVFPYKQYDYWGQGTQVTVSS | high polyreactivity
QVQLVESGGGLVQAGGSLRLSCAASGRTFRYYAMGWYRQAPGKERELVAAISSSGDRTYYADSVKGRFTISRDNAKNTVYLQMNSLKPEDTAVFYCAADRGARGDYWGQGTQVTVSS | high polyreactivity
QVQLVESGGGLVQAGGSLRLSCAASGRTFRYYAMGWYRQAPGKERELVAAISWSGSSTYYADSVKGRFTISRDNAKNTVYLQMNSLKAEDTAVYFCNAKGVRGKYFDYSRVSAYDYWGQGTQVTVSS | low polyreactivity
QVQLVESGGGLVQAGGSLRLSCAASGRTFRYYAMGWYRQAPGKERELVAAITISSGSTYYADSVKGRFTISRDNAKNTVYLQMNSLKPEDTAVYYCAATRRYHFDYWGQGTQVTVSS | high polyreactivity
QVQLVESGGGLVQAGGSLRLSCAASGRTFRYYAMGWYRQAPGKERELVAAITRSGGSTNYADSVKGRFTISRDNAKNTVYLQMNSLKPEDTAVYYCNREGRSVSGYYYYWGQGTQVTVSS | high polyreactivity
QVQLVESGGGLVQAGGSLRLSCAASGRTFRYYAMGWYRQAPGKERELVAVITQSGGRTYYADSVKGRFTISRDNAKNTVYLQMNSLKPEDTAVYYCNAVFPGFFRSSPTYDYWGQGTQVTVSS | high polyreactivity
QVQLVESGGGLVQAGGSLRLSCAASGRTFRYYTMGWYRQAPGKEREFVAAISSTGGTYYADSVKGRFTISRDNAKNTVYLLMNSLKPEDTAFYYCAATFIQVVVNVQLYDYDYWGQGTQVTVSS | low polyreactivity

Sequence | polyreactivity (PSR sort gate)
QVQLVESGGGLVQAGGSLRLSCAASGRTFRYYTMGWYRQAPGKEREFVAAISSTGGTYYADSVKGRFTISRDNAKNTVYLQMNSLKPEDTAVYYCNADTIYYAGDFRYDYWGQGTQVTVSS | low polyreactivity
QVQLVESGGGLVQAGGSLRLSCAASGRTFRYYTMGWYRQAPGKERELVAAISRGGRTYYADSVKGRFTISRDNGKNTVYLQMNSLKPEDTAVYNCAAQLFREYYYWGHGTQVTVSS | high polyreactivity
QVQLVESGGGLVQAGGSLRLSCAASGRTFSAYAMGWYRQATGQERELVAAISRSGGSTYYADSVKGRFTISRDNAKNTVYLQMNSLKPEDTAVYYCAAKGGSGLYNWGQGTQVTVSS | high polyreactivity
QVQLVESGGGLVQAGGSLRLSCAASGRTFSFYAMGWYRQAPGKERELVAGIDWDDGSTSYADSVKGRFTISRDNAKNTVYLQMNSLKPEDTAVYYCAAGPYAGVDPGDYYYWGQGTQVTVSS | low polyreactivity
QVQLVESGGGLVQAGGSLRLSCAASGRTFSGNAMGWYRQAPGKERELVAGISTSGGSTYYADSVKGRFTISRDNANNTVYVQMNSLKPEDTAVYYCAADRPGSFTTMDYWGQGSQVTVSS | high polyreactivity
QVQLVESGGGLVQAGGSLRLSCAASGRTFSGYAMGWYRQAPGKARELVAGITWNGGRTYYADSVKGRFTISRDNAKNTVYLQMNSLKPEDTAVYYCNKLGAVYPKYGYWGQGTQVTVSS | high polyreactivity
QVQLVESGGGLVQAGGSLRLSCAASGRTFSGYAMGWYRQAPGKEREFVAAITSSGSSTYYADSVKWRFTISRVIAKNTVYLQMNSLKPEDTAVYYCAATPQAHSERYYYQRKYDYWGQGTQVTVSS | low polyreactivity
QVQLVESGGGLVQAGGSLRLSCAASGRTFSGYAMGWYRQAPGKERELVAAISNSGGRTYYADSVKGRFTISRDNAKNTDYLQMNSLKPEDTAVYYSNAVSYWRYDYWGQGTQVTVSS | high polyreactivity
QVQLVESGGGLVQAGGSLRLSCAASGRTFSGYAMGWYRQAPGKERELVAAITSSGSSTYYADSVKGRFTISRDKAKNTVYLQMNCLKPEDTAVYYCAATPQAHSERYYSQRKYDYWGQGTQVTVSS | low polyreactivity
QVQLVESGGGLVQAGGSLRLSCAASGRTFSGYAMGWYRQAPGKERELVAAITSSGSSTYYADSVKGRFTISRDNAKNTVYLQMNSLKPEDTAVYYCAATPQAHSERYYYQRKYDYWGQGTQVTVSS | low polyreactivity
QVQLVESGGGLVQAGGSLRLSCAASGRTFSGYAMGWYRQAPGKERELVAVITYSGGSTYYADSVKGRFTISRDNAKNTVYLQMNSLKPEDTAVYYCNADYVIFYQLVEYDYWGQGTQVTVSS | low polyreactivity
QVQLVESGGGLVQAGGSLRLSCAASGRTFSHYAMGWYRKAPGKERELVDTITRNGGITYYADSVKGRFTISRDNAKNTVYLQMNSLKPEDTAVYYCNTETYHVRRLFDYWGQGTQVTVSS | low polyreactivity
QVQLVESGGGLVQAGGSLRLSCAASGRTFSHYAMGWYRQAPGKERELVAAISGSGGTTYYADSVKGRFTISRDNAKNTVYLQMNSLKPEDTAVYYCNTRGRYLMDYWGQGTQVTVSS | high polyreactivity
QVQLVESGGGLVQAGGSLRLSCAASGRTFSIYAMGCYRQAPGKEREFVAAIRDRGTSTYYADSVKGRFTISRDNAKNTVYLQMNSLKPEDTGVFYCAAVRPYKYQDRDYWGQGTQVTVSS | high polyreactivity
QVQLVESGGGLVQAGGSLRLSCAASGRTFSKYTMGWYIQAPGKERELVAAISYSGGSTYYADSVKGRFTISRDNAKNTVYLKMNSLKPEDTAVYYCAARASTYKYYYWGQGTQVTVSA | high polyreactivity
QVQLVESGGGLVQAGGSLRLSCAASGRTFSLYAMGWYRQAPGKERELVAAISWGGGSTYYADSVKGRFTISRDNAKNTVYLQMNSLKPEDTAVYYCAADDVSATKYEDDYWGQGTQVTVSS | low polyreactivity
QVQLVESGGGLVQAGGSLRLSCAASGRTFSLYAMGWYRQAPGKERELVAAITLSAGSTYYADSVKGRFTISRDNAKNTVYLQMNSLKPEDTAVYYCNAAAYVWKSKQLLYVITYDYWGQGTQVTVSS | high polyreactivity
QVQLVESGGGLVQAGGSLRLSCAASGRTFSLYAMGWYRQAPGNDRELVAAISYNGGRTYYADSVKGRFTISRDNAKNTVYLQLNCLKQDDTAVYYCAADHGDPGGYDYWGQGTQVTVSS | high polyreactivity
QVQLVESGGGLVQAGGSLRLSCAASGRTFSPNAMGWYRQAPGKERELVASITAIGSRTYYADSVKGRFTISRDKAKNTVYLQMNSLKPEDTAVYYCAKDDELYGTKMYSWGQGTQVTVSS | low polyreactivity
QVQLVESGGGLVQAGGSLRLSCAASGRTFSQYAMGWYRQAPGKERELVAAISWSGGSTYYADSVKGRFTISRDNAKNTVYLQMNSLKPEDTAVYYCAAVGKGSARSSYPVLYDYCGQGTQVTVSS | low polyreactivity
QVQLVESGGGLVQAGGSLRLSCAASGRTFSRNAMGWYRQAPGKERELVATISRGGGITFYADSVKGRFTISRDNAKNTVYLQMNSLKPEDTAVYYCNADVRYVGLRRIVDYWGQGTQVTVSS | high polyreactivity
